{"source": "patent US20100092460A1", "about": "(Ablynx, published 2010)", "binders": {"B1": {"name": "Nanobody 11D2 (VHH)", "VHH": "EVQLVESGGGLVQAGGSLRLSCAASGFSFDDYAIGWFRQAPGKEREGVSLISSSDGSTYYADSVKGRFTISSDNAKNTVYLQMNSLKPEDTAVYYCAAGQGLLRAQALRWESYDYWGQGTQVTVSS", "notes": "llama VHH against CXCL11; also called 11G1; 11H1; not shown: C-terminal c-myc tag and (His)6 tag coded by the vector"}, "B2": {"name": "Nanobody 11A3 (VHH)", "VHH": "B1 VHH with A33V, Q100N, A105L, Q106W, A107M, L108F, R109H, W110V, E111S, S112A", "notes": "llama VHH against CXCL11; not shown: C-terminal c-myc tag and (His)6 tag coded by the vector"}, "B3": {"name": "Nanobody 11H2 (VHH)", "VHH": "B1 VHH with S28T, L50C, S57D, I70A, M83I, R104I", "notes": "llama VHH against CXCL11; purified; not shown: C-terminal c-myc tag and (His)6 tag coded by the vector"}, "B4": {"name": "Nanobody 11C2 (VHH)", "VHH": "EVQLVESGGGLVQAGGSLRLPCAASGFTFDDYVIGWFRQAPGKEREGVSLISSSDGSTYYADSVKGRFTISSDNAKNTVYLQMNGLKPEDTAVYYCAATSSIPYYSGSYYPNPFEYDYWGQGTQVTVSS", "notes": "as for B2"}, "B5": {"name": "Nanobody 11E2 (VHH)", "VHH": "EVQLVESGGGLVQAGGSLRLSCAASGFTFDDYAIGWFRQAPGKEREGVSCISSSDDSTYYADSVKGRFTISSDTAKNTVYLQMDSLKPEDTAVYYCAKDCIIPPIGSWGQGTQVTVSS", "notes": "as for B2"}, "B6": {"name": "Nanobody 11F2 (VHH)", "VHH": "EVQLVESGGGLVQPGGSLRLSCAASGFTFSSYAMSWVRQAPGKGLEWVSSIYSDGSNTYYADSVKGRFTISRDNAKNTLYLQMNSLKSEDTAVYYCAKKDYAVVPLDEYDYWGQGTQVTVSS", "notes": "llama VHH against CXCL11; also called 38D11; not shown: C-terminal c-myc tag and (His)6 tag coded by the vector"}, "B7": {"name": "Nanobody 11G2 (VHH)", "VHH": "EVQLVESGGGLVQAGGSLRLSCAASGFTFDDYAIGWFRQAPGKEREGVSWISSSDGSTYYADSVKGRFTISSDNAKNTVYLQMNSLKPEDTAVYYCAAGAGFLITTIWTTQMYDYWGQGTQVTVSS", "notes": "as for B2"}, "B8": {"name": "Nanobody 8H7 (VHH)", "VHH": "EVQLVESGGGLVQAGDSLRLSCAASGRTFSSYRMGWFRQAPGKEREFVAAISRSGASAYYADSVKGRFTSSRDNAKNTVYLQMNKLKPEDTAVYYCAASSRIGVDDPEAYGYWSQGTQVTVSS", "notes": "llama VHH against CCL2; not shown: C-terminal c-myc tag and (His)6 tag coded by the vector"}, "B9": {"name": "Nanobody 8A8 (VHH)", "VHH": "EVQLVESGGGLVQAGGSLRLSCAASGRTFSSYRMGWFRQAPEKEREFVAVITRSGSDQFYSNSVKGRFTISRDNAKNTVYLQMNSLKPEDTAVYYCAAGAQIGWAEASTYDYWGQGTQVTVSS", "notes": "llama VHH against CCL2; also called 8D8; 15C7; not shown: C-terminal c-myc tag and (His)6 tag coded by the vector"}, "B10": {"name": "Nanobody 8H8 (VHH)", "VHH": "B9 VHH with V2M, V50L, T52N, S56G, D57S, I102M", "notes": "as for B8"}, "B11": {"name": "Nanobody 15C8 (VHH)", "VHH": "B9 VHH with S56G, D57S, Q58T, I102M", "notes": "as for B8"}, "B12": {"name": "Nanobody 15A8 (VHH)", "VHH": "EVQLVESGGGLVQAGGSLRLSCAASGFTFDDYAIGWFRQAPGKEREGPLCISSSDGSTYYADSVKGRFTISSDNAKNTVYLQMNSLKPEDTAVYYCAAESLGDYGLASPLPADFGSWGQGTQVTVSS", "notes": "as for B8"}, "B13": {"name": "Nanobody 8A7 (VHH)", "VHH": "B9 VHH with T52S, S56G, D57S, Q58T, I102M", "notes": "as for B8"}, "B14": {"name": "Nanobody 8D7 (VHH)", "VHH": "B9 VHH with V50L, S56G, D57T, Q58T, K87E, I102M", "notes": "as for B8"}, "B15": {"name": "Nanobody 8E7 (VHH)", "VHH": "B9 VHH with R27G, S56G, D57S, Q58H, F59S, I102M", "notes": "as for B8"}, "B16": {"name": "Nanobody 15F7 (VHH)", "VHH": "B9 VHH with S21P, T52S, S56G, Q58T, N62S, I102M", "notes": "as for B8"}, "B17": {"name": "Nanobody 15H7 (VHH)", "VHH": "B9 VHH with E6K, V50L, T52S, S56G, D57T, Q58T, K87E, I102M", "notes": "as for B8"}, "B18": {"name": "Nanobody 15H4 (VHH)", "VHH": "EVQLVESGGGLVQAGGSLRLSCAASGLTFSTYPMGWFRQAPGKEREFVAAINSGGSSTYYADSVKGRFTISRDNAKNTVYLQMNSLKPEDTAVYSCAVKIYSGSYSSPPGYNYWGQGTQVTVSS", "notes": "as for B8"}, "B19": {"name": "Nanobody 8E1 (VHH)", "VHH": "B18 VHH with S57Y, K76V, V79I, Y113H", "notes": "as for B8"}, "B20": {"name": "Nanobody 15H3 (VHH)", "VHH": "EVQLVESGGGLVQAGGSLRLSCAASGGTFSNYAMGWFRQAPEKEREFVAAVIWRGGSTYYADSVKGRFTISRDNARNTVYLQMNSLKPEDTAVYYCAADLLGNSDYEPSSGFGSWGQGTQVTVSS", "notes": "as for B8"}, "B21": {"name": "Nanobody 8E5 (VHH)", "VHH": "EVQLVESGGGLVQAGGSLRLSCAASGGTFSSYRMAWFRQTPGKEREFVTLISRSGGTTDYTDSVKGRFTISRDNAKNTVYLQMNSLKPEDTAVYYCAAAGSMGWNHFREYDYWGQGTQVTVSS", "notes": "as for B8"}, "B22": {"name": "Nanobody 8A5 (VHH)", "VHH": "QVQLVESGGGLVQAGGSLALSCAASGIAFSIFDMAWFRQTPGKEREAVARISHGGGKDYLDSVKGRFTISRDNAKNTVTLQMTSLKPEDTAVYYCNAKNSFRNLWGQGTQVTVSS", "notes": "as for B8"}, "B23": {"name": "Nanobody 8B2 (VHH)", "VHH": "EVQLVESGGGLVQAGGSLRLSCAASGGTFASYGMGWFRQYPGKEREFVAAISRSGDSTYYADSVKGRFTISRDNAKNTVYLQMNSLKPEDTAVYYCAAGRFIPQLSAYDYWGQGTQVTVSS", "notes": "as for B8"}, "B24": {"name": "Nanobody 8D1 (VHH)", "VHH": "EVQLVESGGGLVQPGGSLRLSCAASGFNLDDYAIGWFRQAPGKEREGVACASSTDGSTAYADSVKGRFTVSRDNAKNTVYLQMNSLKPEDTAVYYCAADPSDPFCPGLYYGMDYWGKGTLVTVSS", "notes": "as for B8"}, "B25": {"name": "Nanobody 8D5 (VHH)", "VHH": "EVQLVESGGGLVQAGGSLRLSCAASGRTFSNYAMDWFRQAPGKEREFVAAISKSDGSTYYADSVKGRFTISRDNAKNTVYLQMNSLKPEDTAVYYCAAEGDSSPMGGVTYDYWGQGTQVTVSS", "notes": "as for B8"}, "B26": {"name": "Nanobody 11A1 (VHH)", "VHH": "B1 VHH with S28T, F29L, L50C, S54I, S57D, Y59V, I70A, V79A, R104T", "notes": "as for B2"}, "B27": {"name": "Nanobody 11D5 (VHH)", "VHH": "EVQLVESGGGLVQPGGSLRLSCAASRSGLSINAMGWFRQAPGKQRELVASITRGGPTIYADSVKGRFTISGDNAKNTVYLQMNSLKPEDTAVYYCNALIDYGLGFPIEYWGQGTQVTVSS", "notes": "as for B2"}, "B28": {"name": "Nanobody 11E5 (VHH)", "VHH": "B7 VHH with G56K, S57D, F102L, T105A", "notes": "as for B2"}, "B29": {"name": "Nanobody 11C7 (VHH)", "VHH": "EVQLVESGGGLVQAGGSLRLSCAAASGGTFTKQTISWFRQAPGKDREFVAAQWWSGLSTYFAEYADSVKGRFTISRDNAKNTAYLEMNSLKFEDTAVYYCAAGLGVVRTLIRRASSYDYWGQGTQVTVSS", "notes": "as for B2"}, "B30": {"name": "Nanobody 11F7 (VHH)", "VHH": "EVQLVESGGGLVQAGGSLRLSCAASGGTFTKQTMGWFRQTPGKDREFVAVQWWTGLSTYSAEYADSVKGRFTISRDNAKNTAYLQMNSLKFEDTAVYYCAAGLGVVRTFIRRASSYDDWGQGTQVTVSS", "notes": "as for B2"}, "B31": {"name": "Nanobody 11B8 (VHH)", "VHH": "EVQLVESGGGLVQPGGSLRLSCAASGFTLDDYVIGWFRQAPGKEREGVSGISSSDGSTYYADSVKGRFTISRDNAKNTVYLQMNSLKPEDTAVYYCAAGMGVLRLWVLSKLSYDYWGQGTQVTVSS", "notes": "as for B2"}, "B32": {"name": "Nanobody 11G8 (VHH)", "VHH": "EVQLVESGGGLVQAGGSLRLSCAASGRTFSSYAMGWFRQAPGKEQEFVAAISWSGGSTYYADSVKGRFTISRDNAKNTVYLQMNSLKPEDTAVYYCAAHDVDDDESPYYSGGYYRALYDYWGQGTQVTVSS", "notes": "as for B2"}, "B33": {"name": "Nanobody 11D10 (VHH)", "VHH": "EVQLVESGGGLVQAGGSLRLSCAASGFTIDDYAIGWFRQAPGKEREGVSCISSSDGSTYYADSVKGRFTISSDNAKNTVYLQMNSLKPEDTAVYYCAAAQGLVVTEMFVGRSYDYWGQGTQVTVSS", "notes": "as for B2"}, "B34": {"name": "Nanobody 11D1 (VHH)", "VHH": "EVQLVESGGGLVQAGGSLRLSCAASGFTLNDYAIGWFRQAPGKEREGVSLISSDDGSTYYADSVKGRFTISSDNAKNTVYLQMNSLKPEDTAVYYCAAAQGLLLLSLWVPTQYDYWGQGTQVTVSS", "notes": "as for B2"}}, "note": "Residue numbers refer to the chain shown, from its start."}
{"biological_target": "T1, recombinant human CXCL11/I-TAC (human, UniProt O14625 22-94, biotinylated in the ELISA; 125I label in the radioligand assays)", "T1 sequence (looked up)": "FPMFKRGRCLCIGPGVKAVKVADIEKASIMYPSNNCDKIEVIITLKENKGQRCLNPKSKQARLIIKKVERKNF", "assay": "inhibition of 125I-CXCL11 binding to hCXCR3 (HEK293T cells), 10x diluted periplasm; ELISA grade at the label"}
{"binder": "B1", "binding result": "binds"}
{"binder": "B2", "binding result": "binds"}
{"binder": "B3", "binding result": "binds"}
{"binder": "B4", "binding result": "binds"}
{"binder": "B5", "binding result": "binds"}
{"binder": "B6", "binding result": "binds"}
{"binder": "B7", "binding result": "binds"}
{"biological_target": "T2, recombinant human CCL2/MCP1 (human, UniProt P13500 24-99, 125I label in the radioligand assays)", "T2 construct": "Immunogen and selection antigen was the Mucin stalk Chimera (R&D 979-MC/CF)", "T2 sequence (P13500 24-99 limits assumed)": "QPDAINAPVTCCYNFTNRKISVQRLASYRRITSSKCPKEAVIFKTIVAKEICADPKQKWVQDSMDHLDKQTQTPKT", "assay": "inhibition of 125I-CCL2 binding to HCMV-US28 (HEK293T cells), 10x diluted periplasm; ELISA grade at the label"}
{"binder": "B8", "binding result": "binds"}
{"binder": "B9", "binding result": "binds"}
{"binder": "B10", "binding result": "binds"}
{"binder": "B11", "binding result": "binds"}
{"binder": "B12", "binding result": "binds"}
{"biological_target": "T2, recombinant human CCL2/MCP1", "assay": "ELISA, periplasmic extract on coated CCL2, anti-myc detection"}
{"binder": "B13", "binding result": "binds"}
{"binder": "B14", "binding result": "binds"}
{"binder": "B15", "binding result": "binds"}
{"binder": "B16", "binding result": "binds"}
{"binder": "B17", "binding result": "binds"}
{"binder": "B18", "binding result": "binds"}
{"binder": "B19", "binding result": "binds"}
{"binder": "B20", "binding result": "binds"}
{"binder": "B21", "binding result": "binds"}
{"binder": "B22", "binding result": "binds"}
{"binder": "B23", "binding result": "binds"}
{"binder": "B24", "binding result": "binds"}
{"binder": "B25", "binding result": "binds"}
{"biological_target": "T1, recombinant human CXCL11/I-TAC", "assay": "inhibition of 125I-CXCL11 binding to hCXCR3 (HEK293T cells), 10x diluted periplasm"}
{"binder": "B26", "binding result": "binds"}
{"binder": "B27", "binding result": "binds"}
{"binder": "B28", "binding result": "binds"}
{"binder": "B29", "binding result": "binds"}
{"binder": "B30", "binding result": "binds"}
{"binder": "B31", "binding result": "binds"}
{"binder": "B32", "binding result": "binds"}
{"binder": "B33", "binding result": "binds"}
{"binder": "B34", "binding result": "binds"}
